Test results taken from patent EP4682166A1 (Guangzhou Enmai Biotechnology Co., Ltd, dated 2026).
Numbering of substitutions follows the chain as printed. Names may count otherwise. Where two headings read alike, the source gives them in different places.

Columns and labels:
[1] = biological target: T1, human NMI (N-myc Interacting protein), recombinant protein (human, UniProt Q13287 1-307, limits assumed); experiment: ELISA, binding to hNMI
T1 construct: Gene ID: 9111; also called hNMI; antigen
T1 sequence (looked up): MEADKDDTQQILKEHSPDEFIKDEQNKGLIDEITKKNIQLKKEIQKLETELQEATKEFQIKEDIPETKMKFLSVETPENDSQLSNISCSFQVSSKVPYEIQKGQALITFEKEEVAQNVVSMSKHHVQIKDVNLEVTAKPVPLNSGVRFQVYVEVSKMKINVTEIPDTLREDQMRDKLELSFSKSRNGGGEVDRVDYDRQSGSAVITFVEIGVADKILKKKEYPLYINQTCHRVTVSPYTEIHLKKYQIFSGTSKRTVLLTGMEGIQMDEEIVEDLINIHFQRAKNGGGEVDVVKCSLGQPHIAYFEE

[2] = biological target: T1, human NMI (N-myc Interacting protein), …; experiment: ELISA EC50 against parent B-8
[3] = biological target: T1, human NMI (N-myc Interacting protein), …; experiment: ELISA EC50 against parent 94C4
[4] = biological target: T1, human NMI (N-myc Interacting protein), …; experiment: ELISA EC50 against parent 98G10
[5] = biological target: T1, human NMI (N-myc Interacting protein), …; experiment: ELISA, binding to hNMI; remark: listed apart in the source
[6] = biological target: T1, human NMI (N-myc Interacting protein), …; experiment: ELISA EC50 against parent 98G10; remark: listed apart in the source
[7] = biological target: T1, human NMI (N-myc Interacting protein), …; experiment: ELISA EC50 against parent 39B4

B1: B-8-1 (antibody, V domains shown)
VH: QSLEESGGDLVKPGASLTLTCTASGFSFSSSYYMCWVRQAPGKGLEWIACIYAGSSGSTYYASWAKGRFTISKTSSTTVTLQMTSLTAADTATYFCAREYSYDDYGDFWGFNLWGPGTLVTVSS
VL: ALVMTQTPSSVSAAVGGTVTINCQASQNIYTNLAWYQQKPGQPPKLLIYGASNLESGVPSRFKGSGSGTEYTLTISDLECDDAATYYCQSSLESRIADRANAFGGGTEVVVK
notes: also called B-8 Y93E (VL)
EC50 [1]: 0.698 nM
Fold decrease in affinity [2]: 2.26 fold

B2: B-8-2 (antibody, V domains shown)
VH: B1 VH
VL: B1 VL with S91R, E93Y
notes: also called B-8 S91R (VL)
EC50 [1]: 1.45 nM
Fold decrease in affinity [2]: 4.68 fold

B3: B-8-3 (antibody, V domains shown)
VH: B1 VH with Y33E
VL: B1 VL with E93Y
notes: also called B-8 Y33E (VH)
EC50 [1]: 0.176 nM
Fold decrease in affinity [2]: 0.57 fold

B4: B-8-4 (antibody, V domains shown)
VH: B1 VH with Y61E
VL: B1 VL with E93Y
notes: also called B-8 Y61E (VH)
EC50 [1]: 0.177 nM
Fold decrease in affinity [2]: 0.57 fold

B5: 94C4 mutant A32K (VH) (antibody, V domains shown)
VH: QSLEESGGGLVQPEGSLTLTCKASGFDFSSNKMCWVRQAPGKGLEWIACISSASSGSSGSTYYASWAKGRFTISKTSSTTVTLQMTSLTAADMATYFCARDGYDLWGPGTLVTVSS
VL: QVLTQTPSSVSAAVGGTVTISCQSSPSVYNNYLSWFQQKPGQSPKLLIYRVSTLASGVPSRFSGSGSGTQFTLTISGVQCDDAATYYCAGGYDSASDTYVFGGGTEVVVK
Fold decrease in affinity [3]: > 500 fold

B6: 94C4 mutant S52K (VH) (antibody, V domains shown)
VH: B5 VH with K32A, S52K
VL: B5 VL
Fold decrease in affinity [3]: > 500 fold

B7: 94C4 mutant D101Q (VH) (antibody, V domains shown)
VH: B5 VH with K32A, D101Q
VL: B5 VL
Fold decrease in affinity [3]: > 500 fold

B8: 94C4 mutant D101K (VH) (antibody, V domains shown)
VH: B5 VH with K32A, D101K
VL: B5 VL
Fold decrease in affinity [3]: > 500 fold

B9: 94C4 mutant D101S (VH) (antibody, V domains shown)
VH: B5 VH with K32A, D101S
VL: B5 VL
Fold decrease in affinity [3]: > 500 fold

B10: 94C4 mutant D101E (VH) (antibody, V domains shown)
VH: B5 VH with K32A, D101E
VL: B5 VL
Fold decrease in affinity [3]: > 500 fold

B11: 94C4 mutant D101M (VH) (antibody, V domains shown)
VH: B5 VH with K32A, D101M
VL: B5 VL
Fold decrease in affinity [3]: > 500 fold

B12: 94C4 mutant D97K (VL) (antibody, V domains shown)
VH: B5 VH with K32A
VL: B5 VL with D97K
Fold decrease in affinity [3]: > 500 fold

B13: 94C4 mutant S29D (VH) (antibody, V domains shown)
VH: B5 VH with S29D, K32A
VL: B5 VL
Fold decrease in affinity [3]: > 500 fold

B14: 98G10 mutant G55H (VH) (antibody, V domains shown)
VH: QEQLEESGGDLVKPEGSLTLTCTASGFSFSASYWICWVRQAPGKGLEWIACIYGHSSGSAYYASWAKGRFTISKTSSTTVTLQMTSLTAADTATYFCARAGYYNYGSAGDIYPSSFKLWGPGTLVTVSS
VL: DIVMTQTPASVEAAVGGTVTINCQASQSISTALAWYQQKPGQPPKLLIYTASKVASGVPSRFSGSGSGTQFTLTISDLECADAATYYCQNYYYSSSSITFGGGTEVVVK
Fold decrease in affinity [4]: > 100 fold

B15: 98G10-6 (antibody, V domains shown)
VH: B14 VH with H55G, T81Y
VL: B14 VL with T18R, C80P
notes: also called 98G10 T81Y (VH), T18R/C80P (VL)
EC50 [5]: 0.168 nM
Fold decrease in affinity [6]: 1.02 fold

B16: 98G10-11 (antibody, V domains shown)
VH: B14 VH with H55G
VL: B14 VL with Q70D
notes: also called 98G10 Q70D (VL)
EC50 [5]: 0.0659 nM
Fold decrease in affinity [6]: 0.4 fold

B17: 39B4 mutant A107Q (VH) (antibody, V domains shown)
VH: QEQLVESGGGLVQPEGSLTLTCTASGFSFSSSYWICWVRQAPGKGLEWIACIYAGTSGSTYYASWAKGRFTISKTSSTTVDLQMNSLTAADTATYFCARAGYYTYGQGVYIYPSSFKLWGPGTLVTVSS
VL: B14 VL with I2V, N22K, Q27E, S30G, T31N, T50S, K53N, V54L, N90S
Fold decrease in affinity [7]: > 500 fold

B18: 39B4 mutant G106R (VH) (antibody, V domains shown)
VH: B17 VH with G106R, Q107A
VL: B14 VL with I2V, N22K, Q27E, S30G, T31N, T50S, K53N, V54L, N90S
Fold decrease in affinity [7]: > 500 fold

B19: 98G10 mutant S56P (VH) (antibody, V domains shown)
VH: B14 VH with H55G, S56P
VL: B14 VL
Fold decrease in affinity [4]: > 500 fold

B20: 98G10-8 (antibody, V domains shown)
VH: B14 VH with T23K, H55G, T75D, T81Y
VL: B14 VL with T18R, C80P
notes: also called 98G10 T23K/T75D/T81Y (VH), T18R/C80P (VL)
EC50 [5]: 0.106 nM
Fold decrease in affinity [6]: 0.64 fold

B21: 39B4 mutant A107R (VH) (antibody, V domains shown)
VH: B17 VH with Q107R
VL: B14 VL with I2V, N22K, Q27E, S30G, T31N, T50S, K53N, V54L, N90S
Fold decrease in affinity [7]: > 500 fold

B22: 39B4 mutant V109K (VH) (antibody, V domains shown)
VH: B17 VH with Q107A, V109K
VL: B14 VL with I2V, N22K, Q27E, S30G, T31N, T50S, K53N, V54L, N90S
Fold decrease in affinity [7]: > 500 fold

B23: 98G10-10 (antibody, V domains shown)
VH: B14 VH with T23K, H55G, T75D, T81Y
VL: B14 VL with T18R, Q70D, C80P
notes: also called 98G10 T23K/T75D/T81Y (VH), T18R/Q70D/C80P (VL)
EC50 [5]: 0.168 nM
Fold decrease in affinity [6]: 1.02 fold

B24: 98G10-12 (antibody, V domains shown)
VH: B14 VH with H55G, T75D
VL: B14 VL
notes: also called 98G10 T75D (VH)
EC50 [5]: 0.0746 nM
Fold decrease in affinity [6]: 0.45 fold

B25: 98G10 mutant S57Q (VH) (antibody, V domains shown)
VH: B14 VH with H55G, S57Q
VL: B14 VL
Fold decrease in affinity [4]: > 500 fold

B26: 39B4 mutant G106Y (VH) (antibody, V domains shown)
VH: B17 VH with G106Y, Q107A
VL: B14 VL with I2V, N22K, Q27E, S30G, T31N, T50S, K53N, V54L, N90S
Fold decrease in affinity [7]: > 500 fold

B27: 98G10 mutant S57R (VH) (antibody, V domains shown)
VH: B14 VH with H55G, S57R
VL: B14 VL
Fold decrease in affinity [4]: > 500 fold

B28: 98G10 mutant G55W (VH) (antibody, V domains shown)
VH: B14 VH with H55W
VL: B14 VL
Fold decrease in affinity [4]: > 100 fold

B29: 98G10 mutant S57K (VH) (antibody, V domains shown)
VH: B14 VH with H55G, S57K
VL: B14 VL
Fold decrease in affinity [4]: > 500 fold

B30: 39B4 mutant Y102F (VH) (antibody, V domains shown)
VH: B17 VH with Y102F, Q107A
VL: B14 VL with I2V, N22K, Q27E, S30G, T31N, T50S, K53N, V54L, N90S
Fold decrease in affinity [7]: > 500 fold

B31: 98G10 mutant G58V (VH) (antibody, V domains shown)
VH: B14 VH with H55G, G58V
VL: B14 VL
Fold decrease in affinity [4]: > 100 fold

B32: 39B4 mutant V109Q (VH) (antibody, V domains shown)
VH: B17 VH with Q107A, V109Q
VL: B14 VL with I2V, N22K, Q27E, S30G, T31N, T50S, K53N, V54L, N90S
Fold decrease in affinity [7]: > 500 fold

B33: 98G10 mutant S56N (VH) (antibody, V domains shown)
VH: B14 VH with H55G, S56N
VL: B14 VL
Fold decrease in affinity [4]: > 500 fold

B34: 98G10-9 (antibody, V domains shown)
VH: B14 VH with T23K, H55G, T81Y
VL: B14 VL with T18R, Q70D, C80P
notes: also called 98G10 T23K/T81Y (VH), T18R/Q70D/C80P (VL)
EC50 [5]: 0.119 nM
Fold decrease in affinity [6]: 0.72 fold

B35: 98G10-7 (antibody, V domains shown)
VH: B14 VH with T23K, H55G, T81Y
VL: B14 VL with T18R, C80P
notes: also called 98G10 T23K/T81Y (VH), T18R/C80P (VL)
EC50 [5]: 0.133 nM
Fold decrease in affinity [6]: 0.81 fold
